Measurements from the DeepSol protein solubility set.

Experiment: soluble on expression in E. coli; label from the status in PepcDB or PDB records

| Sequence | soluble on expression in E. coli |
| --- | --- |
| MSLASSLHVLLEKIIKIGDLTVNSPGGSRTFGDGTGKKVVLNFTDEAAMQEIAADPALKLAEMYMEGRAKVAKGDIYDFLALVKGNTLSEALSFGMIWRGMARIIAARIKMRLPVNHNKSNVAHHYDLSAKLFDLFLDEDWQYSCAYFNPPDIGLYEAQVAKKRHIAAKLMTEPGQSVLEIGSGWGGMAMYIAESAGADVTGITLSEEQLRVSRDRAAKRGLAGNVRFELQDYRYLPASKKYDRIVSVGMFEHVGPTHYRDYFDKVAEVLDDKGVMVLHSIGQPYPALATNPFIEKYIFPGGYIPSLAEVLPAIQKSGLLVKDIEILPMHYAHTLRHWRERFVARKAEAVALYDERFFRMWEFYLAGSEMAFTHENFHIFQIQLAKDRDAVPHNRDYIAQNEAKLLEFEKTRPPLEKVSEGHHHHHH | soluble |
| MSLASVKEAAAVRPPLNQILFGPPGTGKTYEAIEKALEILDPSFLLQLGDDESNERRRALKRRYDELAKEGLVQFVTFHQSFSYENFVEGLSASSDPDTKQVRYEVEDGVFKELCESARTRLVRRSDDAPLELSGRRIWKLSLGDSITEGHIFEECMEKGLALMGFGNNADFSQCQSREDIQKMFAASGEPLSLGAYPITAIKTFVCQMKLGDLIVVSEGNLKFRAIGEITGDYQLLPRDSDTYSQARPVRWLRGYKPALPYGALMENRFSQMTVYELRAGSIDHDKFRELLKSECIATGADRPHVLIIDEINRGNVSRIFGELITLIEPSKRSGAAEALEVLLPYSKDPFSVPDNVYLIGTMNTADRSLAGLDIALRRRFDFVEMAPRPDKLTGVKVAEIDISAVLETMNRRIEVLLDREHRLGHAYFMSLENSNDLSRLSNIFRQQIIPLLQEYFFEDWQRIAWILNDHRKDERFRFIVPAPYSVDSLFGDTGQVAQDSKAWRMNEEAFHKPQSYLGIVGDGKEGHHHHHH | soluble |
| MSLATLAELYEFLETKQDDSHLDSRFSYDAFLPVEQPKARLEILTWWKIERLIEDENCNFDKNFIVSYFDERVKATNNQLLKYRYNYFISLLTNDNRYAKQSIDALIAVINTLLPKDKEDYPHVAEKAIEVLMSLIKRVKYKIPEATDLIWGVLESDYGYRTKMVCIRLAKEKGFFPSRDAKKIVCLCKDLLSLVKDSWRENCCELGLFYSSKIQGEAKPYMNFFYEALGDMEMGQLVDPATAPNNIAIPWMNEDHSQKAMAFYQKAGLTQKRNRAELAFRENKKKMVMLHFKIEKKTDKKIVEYFGNLEKELLEGKLSWLLENLSCPVRFLFPSYEQIRLRMSASKSTVEKLGFENKIMDINGNSKDAGKDFDLRQKYGIWLMNIVRNTVINMILTAVNIKQLTYSKLRKWFLKNTCFGIQLEYTRSGQVVTTTWFSQIDYGVEALIKQYNRFLQGKPTDWRLPVDILSIRFEGILRDMVGDYGGCVTKVGRDNSISQALLDDLLREPCLLQIFRKEDIEFFEYVFTAKGYNIRNYVAHAFYIPQDYGMIEATLVFLCILRLTMFSPKSKTITANEGHHHHHH | not soluble |
| MSLATMQDVATLAGVAPMTVSNCYRVPDKVHPQTLARVLEAAAKLGYTRNRIAGNLASGRSQVVGVLVPSLENSNFIGMIQGLEDRLHQLDHQLMLAVTPTADRELDSIRTFIERRIDGVVLTDVQHSRDTVDLLRNARLPTVETWSLKGPFIDMGVGFSLYDAAFDMTNLMIEAGYRRIGFAGFTPASTERFLERQRGFEDALRRANLRHDVHAYTEQSEGFAGGRITLNALLREEPELDGVFCGTDILAAGMIFECMRRGWRVPGRIGIAGYGNYQIASEITPKLTTVATPGYEMGVAAAEMLVGRLVGAAPAPVIRDVGYRLISGASEGHHHHHH | not soluble |
| MSLATSAFCAISSAALADGGQTKLPLLELPGIEDRDYWVPGEVNVEGKLEAMQAVVGAKAVPFAGTQAEPIQIAMIYPSADTSDFWARNYIAMTKRLEELGIQFETTEFASRQIEHSLQSTYANQVVQDADLYDFVIFGPSELAIQADNIDKMAASEGFSTFVWAFHTPLKDLKNQPDGWFDFSSAAGALTMCDYMLGRLGNDVTMAMNRGIPGITDDQRSGDFKACVEEKGNWTTIYEHYGEYQREGGFEGTSLILQAYPEATVIHNANTAMAMGSVEAQISVGKEKEVFSTGWGGTGLELDAIRRGELDATPMRMGDDVGAATAEAIKAHLEGRSDELPFVFLGRITVAHDQMSAEEIDALEAEAFRFSGVGALEREGHHHHHH | soluble |
| MSLATYFMYPSTGGLNTYIAVLKKTLEAQGYTVDVLARKPGPRLHLLSEEINMNTLRKMMSKPLNHYYKKHGQFSEPYIIKQELDRYVFELSSALLPIETYDLIHAQDVVSTRALARVKPAHIPLVTTIHGLYSEERFNRGVIQTKNDHSWKYSLAQEYIGALSADKVIVLTNWMRQRFQDQLNISSHHFETIPNGMFIEEFTNKLTNKTQVHIPESKKFTILCPARLVAEKDHRTLIDAVQLLKKEREDFICLLAGDGELREELEGYCREKEVQDVCLFLGNRNDIPELMNRSDLVVLPSLQENLPFTVMEAQVAGKPLIVSNAGGLPEMVHDGVTGRLFKKRDSRQLAFILKELMDHDEDRQLLGNNAKDWGRSQWSANTFCEKIKTVYAEALEQKKKEPRLMEFESVNRPTYHTLELHRFFEKSLWKKIDQCLPSNYTIPDPAFIKSLTTYEGHHHHHH | not soluble |
| MSLAYKGYLIDLDGTIYKGKSRIPAGERFIERLQEKGIPYMLVTNNTTRTPESVQEMLRGFNVETPLETIYTATMATVDYMNDMNRGKTAYVIGEEGLKKAIADAGYVEDTKNPAYVVVGLDWNVTYDKLATATLAIQNGALFIGTNPDLNIPTERGLLPGAGSLNALLEAATRIKPVFIGKPNAIIMNKALEILNIPRNQAVMVGDNYLTDIMAGINNDIDTLLVTTGFTTVEEVPDLPIQPSYVLASLDEWTFNEGHHHHHH | soluble |
| MSLDCSIKMLKDVPVKMRDGITIYTDIYLPITEEKVPTLIAWSPYGKSAGTAPRYKNLFNMLGMGNAWNSGLTKFEAPDPAYWCAHGYAVCNPDMRGIAHSEGNTTMIGSQEAEDGYDLIEWLAKQSWSNGKTALTGTSYLAFSQWYIAAEQPPHLTCINPTEGLADGYRDLAFIGGIPDPNFIERLQINHVSAKNSQREDLTKEMEAYPLADSAIWKDKVADPSKITIPAFVIASYSNTLHTMGTFRSWRSLGSKEKWLRIHDRQEWPYYYDENNVEELRRFFDYYLLGKENNWTDTPTVRYALIDFQGGNQTDLPSEVFPPTNSENKRYYMNGLLRTLQETPTSDDFKVSYTTENLPGRASFQMTFDKETHFVGYPKAKLFMEVDGYDDLDVFVWLQKLDKFGNVLSEFVVPNHGAALQDFTQEGASALRYKGAWGRLRASMRQLDSQVSTDEIPAYSFDKVEKLSSGEIVELDIILSPIGLTYKAGETLRVVVSSKDELGSVMPGTPGCTPNNKGMHILHTSKEHPSYIQLPIINKEGHHHHHH | soluble |
| MSLDDFCNIPKGKEVVFGFNVPQSGAYADEGMDELKAYQLAVKHLNGEGDGGMLKTMKPLALKGNGVLGKKVTFVSGDTQTKADQARATAKRMIEKDGAIMITGGSSSAEAVAVQSLCQDVGVIFMAGLTHSNDTTGKDKRAYGFRHFFNAYMSGVALGPVLAEAYGKDRAAYHLTADYTWGWTQEESMKDATEKQGWKTVKAVRTPLGAADFSQYITPVLNSGADVLILNHYGKDMINSLTQAVQFGLRDKMANGKKFEIVVPLFSELMAQGAGDAIKGIYGTANWDWKLEDAATSAFTKSFGAAYGTPPSQAAQTCYVQAILYADAVERAGTFNPSKVIAALEGFEFDGLGNGKTLYRAADHQCFKDVLVVQGKEKPKEGHHHHHH | not soluble |
| MSLDDGTGLFTIGQLARRTGLSVRTIRYWSDEGALPPVTRSSGGYRLYDAGSVARLELIRTLRELGLGLDDVREVLAGETTVAEVAATHVTALDAQIRALKVTRAVLSTVARRGSTAEEMTLMNKLARLSAAERRRILEEFADEMFRGLDTADPVIRERMRNTAVDLPDEPTPEQVDAWVELVELLQDPEFRAQMRAAAEFNAADRGHDSPAGASLWFVRRLVQLAADARQRGEGHHHHHH | not soluble |
| MSLDDYGIPQVAEINEQISVVWKDYGISPAPEAQDFEWVRRVYLDIIGRVPSVAELEEFQRDRGKDRKKNLVEKLLNDSAFTEEYARNWTTIWTNVLIGRNGGLDNNSQVSREGMQKYLRDSFARNKPYDQLVREVITSEGANAPGMPNFNGAVNFYMDKLAEDGVQATAKTAQIFLGVQVQCTQCHNHPFNSWKQDKFWELNAFFRQTRAQRDRGMEANEGHHHHHH | not soluble |
| MSLDEIAVPILSIITLSSYQPDTIALVDDFSSVSYRNAIIHIETVSEQIASCVANSLTKRVMAYFAGSAEMVLAILGAQLSGAAYIPIEPKTPGSRIDAIADVAKPCMIMTDSQNRQGAQSIAERLGIPLVVLSLKKAGKTLDIFREGYREQPFTVERLTSSTPAVVFFTSGSTGTPKGVELSHLGYYRWFEGVQDLIQVKRGDRVALTTNHSFDLSLGELYLGLMSGATLYVPRQSTVRDPLSLVPWLDQHEITVFQSVPSLMRRILLFRESAGQGLETVRTIMFCGEPLEQQLVKKVKDSFPFSHTRILNLYGPVEASVQVTYCWAEEYLGSEDVIIPLGKPLKHVVVRLAEVDDTSHELQITGDHLALRYLDEKKTRESFINDEAEGTRFYRTGDLGRLNARGDLEYHGRVDDQVKINGYRIELGEIEKTIIDHFKATDCCVLIEKSEGEPSLVAFVVSPNDSVADLRRAVADHLPTYMIPRTVIFIESIPLNTNGKRDKPSLRAEYLKEGHHHHHH | not soluble |
| MSLDEPTDGTGAGTSATEMLDSLEVKGRAPKTGYKRTQFGKAWADVDHNGCDTRNDILNRDLTGVRHKWRTHNCVVKSGKLHDPYTGKDIKFKKGKKTSTAVQIDHVVALSDAWQKGAQKLSEERRTALANDPYNLMAVQGRANQKKSDGDAATWMPSNKGFRCEYVARQIGVKHKYSLWVTQAEKEAMAKVLSSCPTQTVPDYTGVKDSTAEKTTESEQTEQTQTEQSAEQAQQTQQTTQAPAPEPAPAPAPAPQPAPQQDVYYQNCTAARAAGAAPIYQGQPGYRSQLDRDHDGVACEEGHHHHHH | soluble |
| MSLDFNDEIYRELNRICASLSQQCSTYQPEFRTCLDAAFQALRGGKLIRPRMLLGLYNTLVDDDIEVKLNTVLQVAVALELLHFSLLVHDDVIDGDLYRRGKLNFIGQILMHRTPESFAQIQRDPEHLDWAQSNGLLMGNLFLAATHQIFARLDLPHHQRVRLLDLLNHTINDTIVGEFLDVGLSSKAISPNMDIALEMSRLKTATYTFELPMRAAAILAELPQEIETKIGEIGTNLGIAYQLQDDYLSTFGDAAEHGKDAFSDLREGKETTIIAFARDTAKWTDIQDNFGSADLSTSQAERIQHLLIQCGAKNHSLNAISDHLNICRSMIKTLSPQVDPKAQNLLLKQVEQLASRKSEGHHHHHH | soluble |
| MSLDHHLQGPVVAGMPNLHSHAFQRGMAGLSESRSGEKDSFWSWRKRMYHFLQVLSPEDVEAIASQLYLEMLKAGYTSVGEFHYLHHAVDGKHYANPAEMSERILAASETTGIGLTHLPVLYRFGGFGSREPSFQQGRFIHEPDEFVSLLEKLSPSFEKHPNRRLGMAPHSLRAVSPDLLSKVLPEFQRLCPGSPLHLHISEQTAEVEECLEWSGLRPVQWFFENLEPDSNWCLIHATHLDSQERRKLAESEVTVGLCPTTEANLGDGIFPMKEFMEEGGGFGIGSDSHVSISLCEELRWLEYQQRLLQRQRNCLREGHHHHHH | soluble |
| MSLDKRYIIAEIKVSIVKTQSAGADYTDHAAGHWINDTIIANPMSVYNDFQHSRSAWGMDVLKGIFIEVTTESGHQGYATAYGGYISSWIIKNHLNRFLIGADARNLSKLYDQMYRASIPYSGQNGVVINTIAGIDLALWDLIGKVRQEPVYMMIGGKVREKLQTYVTGPEAKLAQDWGHVGSKIPLPYGPGDGIVGLKKNQEYIMETRKQVGSDYRLMVDCYMSLDVPYAIDLANAVKEANLYWIEEALPPHDLESHKHIKDACPWQKWTTGEHTNSRYGFRNLIRDRSVDILQPDLTLCGMTETLRIAAMASAYDITVIPHCSGVYAYNFGIASTLTPFNEFINLHPKATEVVPIFGKMFTNEPVPIKGEVTLTDLPGFGAELNKEVELEEIEGHHHHHH | soluble |
